Laboratory results published in the supplement of paper PMC10567573.

B1: SEC22B (parent)
chain: AKQLFRKLNEQSPTRCTLEAGAMT

Variants of: B1
Assay: protein stability index of a GFP-peptide fusion (GPS, HEK-293T) (PSI 1-6); higher = more stable
Conditions: c terminus: a fixed tail appended
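Note: lentivirally expressed fusions sorted by FACS into six bins by GFP to DsRed ratio, PSI derived from sequencing read proportions per bin multiplied by bin number.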

Variant | protein stability index
AKQLFRKLNEQFPTRCTLEAGAMT | 2.05
AKQLFRKLNEQNPTRCTLEAGAMT | 1.93
AKQLFRKLNEQTPTRCTLEAGAMT | 1.96
AKQLFRKLNEQDPTRCTLEAGAMT | 3.51
AKQLFRKLNEQWPTRCTLEAGAMT | 1.77
AKQLFRKLNEQAPTRCTLEAGAMT | 1.88
AKQLFRKLNEQYPTRCTLEAGAMT | 2.43
AKQLFRKLNEQQPTRCTLEAGAMT | 2.16
AKQLFRKLNEQHPTRCTLEAGAMT | 2.13
AKQLFRKLNEQGPTRCTLEAGAMT | 2.14
AKQLNRKLNEQSPTRCTLEAGAMT | 3.07
AKQLVRKLNEQSPTRCTLEAGAMT | 2.95
AKQLGRKLNEQSPTRCTLEAGAMT | 3.62
AKQLLRKLNEQSPTRCTLEAGAMT | 2.48
AKQLCRKLNEQSPTRCTLEAGAMT | 2.55
AKQLHRKLNEQSPTRCTLEAGAMT | 2.89
AKQLFRKLNEQSPTDCTLEAGAMT | 4.3
AKQLFRKLNEQSPTICTLEAGAMT | 2.76
AKQLFRKLNEQSPTHCTLEAGAMT | 3.44
AKQLFRKLNEQSPTNCTLEAGAMT | 3.19
AKQLFRKLNEQSPTSCTLEAGAMT | 2.44
AKQLFRKLNEQSPTCCTLEAGAMT | 2.8
AKQLFRKLNEQSPTPCTLEAGAMT | 3
AKQLFRKLNEQSPTQCTLEAGAMT | 3.55

Variant | protein stability index
ACQLFRKLNEQSPTRCTLEAGAMT | 1.7
ARQLFRKLNEQSPTRCTLEAGAMT | 2.76
ANQLFRKLNEQSPTRCTLEAGAMT | 2.72
AWQLFRKLNEQSPTRCTLEAGAMT | 2.92
AGQLFRKLNEQSPTRCTLEAGAMT | 2.77
AIQLFRKLNEQSPTRCTLEAGAMT | 1.43
AAQLFRKLNEQSPTRCTLEAGAMT | 2.13
AFQLFRKLNEQSPTRCTLEAGAMT | 1.72
AHQLFRKLNEQSPTRCTLEAGAMT | 1.94
AKQLFRKCNEQSPTRCTLEAGAMT | 2.35
AKQLFRKKNEQSPTRCTLEAGAMT | 3.07
AKQLFRKINEQSPTRCTLEAGAMT | 2.1
AKQLFRKYNEQSPTRCTLEAGAMT | 1.91
AKQLFRKANEQSPTRCTLEAGAMT | 2.91
AKQLFRKHNEQSPTRCTLEAGAMT | 2.64
AKQLFRKLNEQSHTRCTLEAGAMT | 1.7
AKQLFRKLNEQSFTRCTLEAGAMT | 1.77
AKQLFRKLNEQSSTRCTLEAGAMT | 1.58
AKQLFRKLNEQSMTRCTLEAGAMT | 1.82
AKQLFRKLNEQSLTRCTLEAGAMT | 2.08
AKQLFRKLNEQSCTRCTLEAGAMT | 1.53
AKQLFRKLNEQSYTRCTLEAGAMT | 1
AKQLFRKLNEQSPTRCTLEAGWMT | 3.6
AKQLFRKLNEQSPTRCTLEAGRMT | 2.14

Variant | protein stability index
AKQLFRKLNEQSPTRCTLEAGSMT | 2.27
AKQLFRKLNEQSPTRCTLEAGIMT | 2.17
AKQLFRKLNEQSPTRCTLEAGLMT | 1.58
AKQLFRKLNEQSPTRCTLEAGQMT | 1.88
TKQLFRKLNEQSPTRCTLEAGAMT | 2.3
HKQLFRKLNEQSPTRCTLEAGAMT | 2.23
FKQLFRKLNEQSPTRCTLEAGAMT | 2.18
SKQLFRKLNEQSPTRCTLEAGAMT | 2.46
GKQLFRKLNEQSPTRCTLEAGAMT | 2.26
DKQLFRKLNEQSPTRCTLEAGAMT | 2.98
LKQLFRKLNEQSPTRCTLEAGAMT | 2.07
IKQLFRKLNEQSPTRCTLEAGAMT | 1.5
AKQLFRKLNEMSPTRCTLEAGAMT | 2.26
AKQLFRKLNEFSPTRCTLEAGAMT | 1.65
AKQLFRKLNEISPTRCTLEAGAMT | 1.71
AKQLFRKLNEPSPTRCTLEAGAMT | 2.09
AKQLFRKLNESSPTRCTLEAGAMT | 2.1
AKQLFRKLNELSPTRCTLEAGAMT | 1.38
AKQLFRKLNENSPTRCTLEAGAMT | 2.22
AKQLFRKLNETSPTRCTLEAGAMT | 1.82
AKQLFRKLNEASPTRCTLEAGAMT | 1.77
AKQLFRKLNEDSPTRCTLEAGAMT | 2.44
AKQLFRKLNEESPTRCTLEAGAMT | 2.85
AKQLFRKLNECSPTRCTLEAGAMT | 2.13

Variant | protein stability index
AKQLFRKLNEQSPTRCTGEAGAMT | 2.48
AKQLFRKLNEQSPTRCTHEAGAMT | 2.64
AKQLFRKLNEQSPTRCTDEAGAMT | 3.92
AKQLFRKLNEQSPTRCTIEAGAMT | 2.35
AKQLFRKLNEQSPTRCTYEAGAMT | 1.89
AKQLFRKLNEQSPTRCTAEAGAMT | 3.25
AKQLFRKLNEQSPTRCTFEAGAMT | 2.09
AKQLFRKLNEQSPTRCTNEAGAMT | 3.17
AKQLFIKLNEQSPTRCTLEAGAMT | 1.67
AKQLFWKLNEQSPTRCTLEAGAMT | 2.12
AKQLFTKLNEQSPTRCTLEAGAMT | 2.27
AKQLFDKLNEQSPTRCTLEAGAMT | 2.67
AKQLFMKLNEQSPTRCTLEAGAMT | 1.75
AKQLFVKLNEQSPTRCTLEAGAMT | 2.31
AKKLFRKLNEQSPTRCTLEAGAMT | 2.02
AKELFRKLNEQSPTRCTLEAGAMT | 2.51
AKPLFRKLNEQSPTRCTLEAGAMT | 2.5
AKHLFRKLNEQSPTRCTLEAGAMT | 1.93
AKRLFRKLNEQSPTRCTLEAGAMT | 1.93
AKLLFRKLNEQSPTRCTLEAGAMT | 2.08
AKDLFRKLNEQSPTRCTLEAGAMT | 2.3
AKGLFRKLNEQSPTRCTLEAGAMT | 2.39
AKFLFRKLNEQSPTRCTLEAGAMT | 2.18
AKMLFRKLNEQSPTRCTLEAGAMT | 1.94

Variant | protein stability index
AKQLFRKLNEQSPTRCTLENGAMT | 3.08
AKQLFRKLNEQSPTRCTLEWGAMT | 1.59
AKQLFRKLNEQSPTRCTLEGGAMT | 3.5
AKQLFRKLNEQSPTRCTLEFGAMT | 1.34
AKQLFRKLNEQSPTRCTLEEGAMT | 3.22
AKQLFRKLNEQSPTRCTLEIGAMT | 2.27
AKQLFRKLNEQSPTRCTLECGAMT | 1.64
AKQLFRKLNEQSPTRCTLETGAMT | 2.96
AKQLFRKLNEQSPTRCTLESGAMT | 2.99
AKQLFRKLNEQSPTRCTLEAHAMT | 1.94
AKQLFRKLNEQSPTRCTLEAAAMT | 1.96
AKQLFRKLNEQSPTRCTLEAMAMT | 1.34
AKQLFRKLNEQSPTRCTLEANAMT | 2.18
AKQLFRKLNEQSPTRCTLEAEAMT | 2.56
AKQLFRKLNEQSPTRCTLEAVAMT | 4.07
AKQLFRKLNEQSPTRCTLEAPAMT | 2.38
AKQLFRKLNEQSPTRCTLEAQAMT | 1.68
AKQLFRKLNEQSPTRCTLEARAMT | 2.4
AKQLFRKLNEQSPTRCTLEACAMT | 2.58
AKQLFRKLNEQSPTRCTLEAGAWT | 2.19
AKQLFRKLNEQSPTRCTLEAGAFT | 1.72
AKQLFRKLNEQSPTRCTLEAGACT | 2.18
AKQLFRKLNEQSPTRCTLEAGADT | 2.77
AKQLFRKLNEQSPTRCTLEAGAKT | 2.45

Variant | protein stability index
AKQLFRKLNEQSPTRCTLEAGAST | 2.7
AKQLFRKLNEQSPTRCTLEAGAGT | 2.85
AKQLFRKLNEQSPTRCTLEAGAPT | 2.7
AKQLFRKLNEQSPTRCTLEAGATT | 2.22
AKQLFRKLNEQSPTRCTLEAGANT | 2.61
AKQLFRKLNEQSPTRCTLEAGAAT | 2.09
AKQLFRKLNEQSPTRCTLEAGAVT | 1.81
AKQLFRKLNWQSPTRCTLEAGAMT | 1.56
AKQLFRKLNYQSPTRCTLEAGAMT | 3.1
AKQLFRKLNKQSPTRCTLEAGAMT | 1.65
AKQLFRKLNDQSPTRCTLEAGAMT | 2.18
AKQLFRKLNMQSPTRCTLEAGAMT | 2.72
AKQLFRKLNGQSPTRCTLEAGAMT | 2.13
AKQLFRKLNCQSPTRCTLEAGAMT | 1.41
AKQMFRKLNEQSPTRCTLEAGAMT | 2.4
AKQQFRKLNEQSPTRCTLEAGAMT | 2.68
AKQNFRKLNEQSPTRCTLEAGAMT | 2.75
AKQCFRKLNEQSPTRCTLEAGAMT | 2.77
AKQSFRKLNEQSPTRCTLEAGAMT | 3.44
AKQVFRKLNEQSPTRCTLEAGAMT | 2.07
AKQYFRKLNEQSPTRCTLEAGAMT | 2.32
AKQLFRKLNEQSPTRPTLEAGAMT | 3.96
AKQLFRKLNEQSPTRVTLEAGAMT | 2.53
AKQLFRKLNEQSPTRMTLEAGAMT | 3.08

Variant | protein stability index
AKQLFRKLNEQSPTRSTLEAGAMT | 3.66
AKQLFRKLNEQSPTRGTLEAGAMT | 3.93
AKQLFRKLNEQSPTRLTLEAGAMT | 3.19
AKQLFRKLNEQSPTRWTLEAGAMT | 2.52
AKQLFRKLNEQSPHRCTLEAGAMT | 1.81
AKQLFRKLNEQSPQRCTLEAGAMT | 1.86
AKQLFRKLNEQSPIRCTLEAGAMT | 2.55
AKQLFRKLNEQSPCRCTLEAGAMT | 3.02
AKQLFRKLNEQSPKRCTLEAGAMT | 2.41
AKQLFRKLNEQSPRRCTLEAGAMT | 2.38
AKQLFRKLNEQSPYRCTLEAGAMT | 1.99
AKQLFRKLNEQSPARCTLEAGAMT | 1.68
AKQLFRKLMEQSPTRCTLEAGAMT | 1.85
AKQLFRKLPEQSPTRCTLEAGAMT | 2.59
AKQLFRKLCEQSPTRCTLEAGAMT | 1.92
AKQLFRKLIEQSPTRCTLEAGAMT | 2.13
AKQLFRKLWEQSPTRCTLEAGAMT | 3.44
AKQLFRKLNEQSPTRCTLEAGAMI | 1.92
AKQLFRKLNEQSPTRCTLEAGAMS | 2.19
AKQLFRKLNEQSPTRCTLEAGAMQ | 2.39
AKQLFRKLNEQSPTRCTLEAGAMV | 1.99
AKQLFRKLNEQSPTRCTLEAGAMP | 1.72
AKQLFRKLNEQSPTRCTLEAGAMY | 2.36
AKQLFRKLNEQSPTRCTLEAGAMW | 2.19

Variant | protein stability index
AKQLFRPLNEQSPTRCTLEAGAMT | 3.33
AKQLFRFLNEQSPTRCTLEAGAMT | 1.67
AKQLFRYLNEQSPTRCTLEAGAMT | 1.52
AKQLFRMLNEQSPTRCTLEAGAMT | 1.83
AKQLFRKLNEQSPTRCTLFAGAMT | 1.41
AKQLFRKLNEQSPTRCTLHAGAMT | 2.46
AKQLFRKLNEQSPTRCTLTAGAMT | 2.56
AKQLFRKLNEQSPTRCTLMAGAMT | 2.15
AKQLFRKLNEQSPTRCTLSAGAMT | 2.94
AKQLFRKLNEQSPTRCTLIAGAMT | 1.64
AKQLFRKLNEQSPTRCELEAGAMT | 3.23
AKQLFRKLNEQSPTRCHLEAGAMT | 2
AKQLFRKLNEQSPTRCGLEAGAMT | 1.69
AKQLFRKLNEQSPTRCPLEAGAMT | 2.77
AKQLFRKLNEQSPTRCSLEAGAMT | 1.81
AKQLFRKLNEQSPTRCDLEAGAMT | 3.48
AKQLFRKLNEQSPTRCCLEAGAMT | 2.4
AKQLFRKLNEQSPTRCRLEAGAMT | 2.69
AKQLFRKLNEQSPTRCILEAGAMT | 1.86
AKQLFRKLNEQSPTRCVLEAGAMT | 2.18
